Data set [1] addresses T1, unconjugated human TPBG/5T4 protein with a c-terminal polyhistidine and Avi tag (AcroBiosystems Cat. No. … (human, UniProt Q13641 32-355)).
T1 construct: Bought protein; also called Acro TPGH52E5; Acro Catalog No. TPGH52E; not shown: C-terminal polyhistidine and Avi tag
T1 sequence: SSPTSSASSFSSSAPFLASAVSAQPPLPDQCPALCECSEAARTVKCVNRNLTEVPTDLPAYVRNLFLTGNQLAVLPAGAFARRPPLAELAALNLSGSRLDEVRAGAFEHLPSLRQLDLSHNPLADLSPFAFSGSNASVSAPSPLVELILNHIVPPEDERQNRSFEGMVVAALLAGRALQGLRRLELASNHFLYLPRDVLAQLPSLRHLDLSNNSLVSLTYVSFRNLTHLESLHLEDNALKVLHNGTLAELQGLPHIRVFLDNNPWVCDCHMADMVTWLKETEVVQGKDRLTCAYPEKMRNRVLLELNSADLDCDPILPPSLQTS
As to the kind of experiment: ELISA on coated human 5T4 His-Avi (Acro TPG-H52E5); antibody condition: pH 5.5 Day 7. On the procedure: (§1) A. Normal Binding Unconjugated antibodies were tested for their ability to bind to human 5T4 (hu5T4) using ELISA. On Day 1, unconjugated human TPBG/5T4 protein with a c-terminal polyhistidine and Avi (AVITAG™) tag (AcroBiosystems (Newark, DE, USA), Cat. No. TPG-H52E5) was diluted 2 μg/mL in PBS, mixed thoroughly, plated 100 μL per well in a 96-well plate (Nunc MAXISORP®) and incubated overnight at 4° C.
(In general: ELISA stands for enzyme-linked immunosorbent assay.)

For data set [2], the target named is T1, unconjugated human TPBG/5T4 protein …. As to the kind of experiment: ELISA on coated human 5T4 His-Avi (Acro TPG-H52E5); antibody condition: pH 8.5 Day 7. On the procedure: as §1
The target is the same in data set [3]. As to the kind of experiment: ELISA on coated human 5T4 His-Avi (Acro TPG-H52E5); antibody condition: PBS time 48 hr. On the procedure: as §1
3. Oxidative Stress. Several unconjugated antibodies were tested for their ability to bind to 5T4 using ELISA in an oxidative environment. Solutions of 1 mg/mL to 10 mg/mL of antibody in 20 mM citrate/50 mM NaCl at a pH of 5.5 were prepared and stored at 37° C. for 1 to 2 weeks.

Data set [4] has as its target T2, HEK293 and CHO cells transfected to express cyno 5T4 (Macaca fascicularis, UniProt Q4R8Y9).
T2 construct: expressed in transfected cells; host or cells: HEK293 and CHO
T2 sequence (Q4R8Y9 35-420): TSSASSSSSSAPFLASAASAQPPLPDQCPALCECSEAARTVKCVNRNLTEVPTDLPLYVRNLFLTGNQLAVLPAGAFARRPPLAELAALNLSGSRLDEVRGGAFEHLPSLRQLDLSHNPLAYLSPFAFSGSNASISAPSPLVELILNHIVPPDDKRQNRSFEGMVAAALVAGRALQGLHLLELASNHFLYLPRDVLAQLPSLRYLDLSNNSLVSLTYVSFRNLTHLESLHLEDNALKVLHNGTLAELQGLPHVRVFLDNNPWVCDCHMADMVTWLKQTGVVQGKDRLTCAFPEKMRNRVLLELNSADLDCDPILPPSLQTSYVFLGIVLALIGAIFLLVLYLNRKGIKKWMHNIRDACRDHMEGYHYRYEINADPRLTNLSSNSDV
Kind of data set: Cell binding to transfected HEK293 and CHO cells, cyno 5T4. It counts as cell-based. How it is done:
Unconjugated antibodies were tested for their ability to bind to HEK293 and CHO cells transfected to express human, cyno, rat, or mouse 5T4.

Data set [5] can be described thus: Size exclusion chromatography (SEC) developability. It counts as physicochemical. Conditions: 1 mg/mL in Dulbecco's PBS pH 7.4. On the procedure: Antibodies that were selected for binding to 5T4, such as those described in Examples 2 and 3, were tested by various methods to assess developability. For example, various chromatographic methods, including size exclusion chromatography (SEC), hydrophobic interaction chromatography (HIC), and standup monolayer adsorption chromatography (SMAC) were employed to assess factors, such as monomer percentage, solubility, and antibody aggregation or precipitation.
Size exclusion chromatography (SEC) analysis was performed using a 7.8 mm ID×30 cm TSKgel G3000SWXL column (Tosoh Bioscience LLC, PN 08541) with a 6 mm×4 cm guard column (PN 08543) on an Agilent 1100 HPLC. Antibodies were normalized to 1 mg/mL concentration in Dulbecco's PBS (pH 7.4, without Ca^2+/Mg^2+) and clarified via centrifugation to pellet particulates while still retaining soluble aggregates. The mobile phase buffer was Dulbecco's PBS (pH 7.4, without Ca^2+/Mg^2+) at 2× concentration (diluted from 10× stock concentration. For each sample, 10 μL was loaded and isocratically eluted at 1.0 mL/minute over 20 minutes at ambient temperature. Absorbance was monitored at 280 nm. Chromatographic peaks were integrated to determine percentage of homogeneity and retention time. The column stationary phase along with choice of mobile phase supports hydrophobic and electrostatic interactions in addition to molecular sizing (secondary interactions much milder compared to SMAC). Data analysis was performed using Agilent ChemStation B.04.03 SP1.
In general terms: In gel filtration, larger molecules generally elute earlier.

Another data set relates to HEK-5T4 cells. Kind of data set: Internalization assay (Incucyte FabFluor-pH), HEK-5T4 cells. It counts as cell-based. How it is done: Adherent cells were harvested at 70-90% confluence and were plated overnight at 37° C. in a 96-well black, clear/flat bottom half-area plate (Corning 3882) at 20,000 cells/well in 50 μL culture media. For suspension cell lines, 96-well plates were coated with poly-L-ornithine solution (Millipore-Sigma) for 1 hour at 37° C. and cells were seeded at 40,000 cells per/well density in 50 μL culture media, about 1 to 2 hours prior to the assay. Antibodies were diluted in cell culture media, mixed with 3× molar concentration of Incucyte human FabFluor-pH red antibody labelling reagent and incubated for 15 minutes at room temperature. 2× final concentration of all dilutions of antibody/FabFluor mix was prepared. 50 μL of 2× antibody/Fab-Fluor mix was then directly added to every well with pre-seeded cells in duplicates and plate was quickly transferred to Incucyte. Plates were then scanned every 30 minutes for up to 24 hours. Care was taken to begin the first scanning (0 hour) within 2 to 3 minutes of adding antibody/FabFluor mix to the cells. Plates were analyzed by reading the red signal generated overtime, normalized to the % confluence of cells in that well. Few antibodies were tested at different concentrations on target cell lines, and the best concentration was selected based on a good signal:noise ratio.

Where a chain is given by its changes, count along the chain named.

B1: mAbA17 (antibody, V domains shown)
VH: EVQLVESGGGLVQPGGSLRLSCAASGFTFSRYWIHWVRQAPGKGLEWVAAIFPYSGSTLYADSVKGRFTISADTSKNTAYLQMNSLRAEDTAVYYCARSPSRSILPSGLDYWGQGTLVTVSS
VL: DIQMTQSPSSLSASVGDRVTITCRASQSVSSAVAWYQQKPGKAPKLLIYSASSLYSGVPSRFSGSRSGTDFTLTISSLQPEDFATYYCQQGDGSPYTFGQGTKVEIKR
notes: also called Antibody mAbA17
With B1, the EC50 (in general, the concentration needed to bring the measured effect to its halfway point) in data set [1] amounted to 0.19 nM; in data set [2] it was 0.158 nM; in data set [3], 0.185 nM.

B2: mAbA4 (antibody, V domains shown)
VH: EVQLVESGGGLVQPGGSLRLSCAASGFTFSRYYIHWVRQAPGKGLEWVAFISPGGSYTYYADSVKGRFTISADTSKNTAYLQMNSLRAEDTAVYYCAREYYSMGVLDYWGQGTLVTVSS
VL: B1 VL with G91A, D92Y, G93E
notes: also called Antibody mAbA4
Regarding B2, the EC50 in data set [1] came out at 0.124 nM; in data set [2], 0.128 nM; in data set [3], 0.189 nM.

B3: mAbA15 (antibody, V domains shown)
VH: EVQLVESGGGLVQPGGSLRLSCAASGFTFSSYYIHWVRQAPGKGLEWVAYITSTGSYTEYADSVKGRFTISADTSKNTAYLQMNSLRAEDTAVYYCARYDRSTRYSGLDYWGQGTLVTVSS
VL: B1 VL with G91A, D92Y, G93A, S94T, Y96V
notes: also called Antibody mAbA15
As for B3, the 50% effective concentration (EC50) in data set [1] turned out to be 0.132 nM; in data set [2], 0.143 nM; in data set [3], 0.203 nM.

B4: mAbA17: 5T4 antibody comprising VH of SEQ ID NO:62 and VL of SEQ ID NO:63 (antibody, V domains shown)
VH: B1 VH
VL: DIQMTQSPSSLSASVGDRVTITCRASQSVSSAVAWYQQKPGKAPKLLIYSASSLYSGVPSRFSGSRSGTDFTLTISSLQPEDFATYYCQQGDGSPYTFGQGTKVEIK
modifications: Antibody mAbA17 VH Sequence; Antibody mAbA17 VL Sequence
Consider B4, for which, in data set [4], the “reactivity to cells transfected to express cyno 5T4” value (“reactivity to cells transfected” below) was “reactive”. Also, the “developability based on SEC analysis” value in data set [5] is reported as “strong developability”.

B5: mAbA4: 5T4 antibody comprising VH of SEQ ID NO:25 and VL of SEQ ID NO:26 (antibody, V domains shown)
VH: B2 VH
VL: B4 VL with G91A, D92Y, G93E
modifications: Antibody mAbA4 VH Sequence; Antibody mAbA4 VL Sequence
As for B5, the “reactivity to cells transfected” value in data set [4] is reported as “reactive”. Also, in the data set on HEK-5T4 cells, the “internalization in HEK-5T4 cells” value is “strong internalization”. Further, the “developability based on SEC analysis” value in data set [5] is recorded as “strong developability”.

B6: mAbA15: 5T4 antibody comprising VH of SEQ ID NO:44 and VL of SEQ ID NO:45 (antibody, V domains shown)
VH: B3 VH
VL: B4 VL with G91A, D92Y, G93A, S94T, Y96V
modifications: Antibody mAbA15 VH Sequence; Antibody mAbA15 VL Sequence
With B6, the “reactivity to cells transfected” value in data set [4] is “reactive”. The “internalization in HEK-5T4 cells” value in the data set on HEK-5T4 cells is on record as “strong internalization”. Besides, in data set [5], the “developability based on SEC analysis” value is “strong developability”.

The record behind these values is patent US20250295803A1, “5T4 ANTIBODY-DRUG CONJUGATES AND USES THEREOF” (EXELIXIS, INC., priority 2022, published 2025).
